Target: H3.2–H4 tetramer (human) (UniProt Q71DI3)
Assay: SEC-MALS

stoichiometry N (MCM2 HBD per H3–H4 tetramer): 2
Substance: MCM2 HBD(43–160) (from UniProt P49736 43-160) (domain or fragment)
